# Laboratory results published in the supplement of paper PMC12042874.
# ± gives the uncertainty stated by the source.
# Assay: amyloid nucleation score (Sup35N fusion, yeast selection) (log enrichment); library NNK3; higher = more nucleation; inactive = no reads after selection
# How it was run: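 The nucleation score equals the log enrichment of output over input reads from DiMSum, centred on the mode score of non-aggregating sequences. It was computed only for sequences with 100 or more input reads. The reads came from Illumina sequencing of plasmid inserts from psi-negative yeast expressing Sup35N fused to peptides of 20 random codons, induced with 100 μM copper sulfate for 24 hours and grown 7 days at 30°C without adenine and uracil.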
row,Substance,amyloid nucleation score
1,NSKYLLD,inactive
2,NSLFSNCARLYGNRGTLGLS,inactive
3,NSLNMRFTLQQTLMGQMNYV,inactive
4,NSMHAATWLEARRRLDKEGF,-0.753 ± 1.3
5,NSMSKVKMLVRSISTIEEVK,inactive
6,NSRFIMHHVGRAFDCDAYLF,-0.194 ± 0.8
7,NSSAKGFVQV,inactive
8,NTCDAPMSNGYAWWD,-0.399 ± 0.75
9,NTIGNNVKYETRCNQSV,inactive
10,NTRSPAESMHHPLMAMAVKN,inactive
11,NTSYLDASSNGNQRCIHSHK,inactive
12,NTTCYIVRVMYVPHG,inactive
13,NTYLVWIPRSFGQGKSNCLK,inactive
14,NVDHRTKSWLINWFTSLELL,inactive
15,NVFQVALRNSLSMLGSGMRM,inactive
16,NVILYGKNLS,inactive
17,NVNLVSIVVVIMDEKDKVKE,2.84 ± 0.07
18,NVTCGRLTPSRDLKHAPVI,-0.32 ± 1.1
19,NVVCNDPPPGVYEDLGWTGI,inactive
20,NVVIFML,2.47 ± 0.076
21,NVWSVVFVSCLIIYGCPKWM,1.31 ± 0.087
22,NWGVYCVRDLWYRHSDMYHR,inactive
23,NWLVSWFLFFPNSPLFCYHW,inactive
24,NWRMVQNQVVWVLRLNTYHY,inactive

row,Substance,amyloid nucleation score
1,NYARTFSRKRMVQKTRSGKG,-0.077 ± 0.4
2,NYAYPIPIRLLIEAWRMGTA,inactive
3,NYGQALHWLLRGGSMWSQGT,inactive
4,NYIDGFFFVHWAGTLMHKDC,inactive
5,NYLVVLMGSTCMKVRPLGVS,inactive
6,NYNRAPMGTAET,inactive
7,NYSRPEL,0.782 ± 0.17
8,NYVICVYFMAGVSACMTLLV,inactive
9,PCDQD,inactive
10,PCLFTSSVSIFYNDALLVLS,inactive
11,PCNFL,inactive
12,PCQDWARYAPGLPLPMGLAL,-0.293 ± 0.89
13,PCRTDICR,inactive
14,PDINM,inactive
15,PDNGLRAIMTAGPVFSRQSN,inactive
16,PEMFGRSWARDTRKVTVLAS,inactive
17,PFDVHKRR,inactive
18,PFENR,inactive
19,PFIGVSMLSMG,-0.47 ± 0.87
20,PFKFFW,inactive
21,PFLYGRYFVAISNS,inactive
22,PFPQWEKHYYFFAMNYFHFS,1.75 ± 0.061
23,PFWWPRKQLYVSQSRKTTAS,inactive
24,PGCTTN,inactive

row,Substance,amyloid nucleation score
1,PGDTQITYTGLSEFWCPGVA,inactive
2,PGDVRLGDIVLIFFLRM,0.781 ± 0.26
3,PGITNLWLEMSHV,inactive
4,PGREIVVPHFR,inactive
5,PGSGIHNWMNCYRSLKE,inactive
6,PGVLLVWLSYSGSRLLS,inactive
7,PGVYKNVAFLR,inactive
8,PGYSFKVSA,-1.06 ± 2.5
9,PHFQTFRDYVLCGISFSYCE,1.46 ± 0.1
10,PHNLNGPS,-0.68 ± 1.9
11,PHSQDMVWQCCWGGATAEES,-0.047 ± 0.72
12,PIFWR,inactive
13,PIQGAMTRNYRFRTGRGFCL,0.882 ± 0.2
14,PKAGALQQFMMRHSSHFQLS,inactive
15,PKMSPSAMRSCDDLASPFIS,inactive
16,PLCWNLNIRDTGIYRPRMRP,inactive
17,PLFFMPGNKWTYFSKSSADT,inactive
18,PLIWCWKIVGRAWFAESRIL,inactive
19,PLPPPRKAMASLFVFLAWMA,inactive
20,PLRSTKSIIVLMDEMRLIAN,inactive
21,PLTFRTMVFKALVEAWRKFN,inactive
22,PMMGSLYFVP,inactive
23,PMMWSVVVYNTNIYGLVCAM,1.26 ± 0.08
24,PMPCIYVSGVWHRVLLCFLS,inactive

row,Substance,amyloid nucleation score
1,PNARKMCMLFVTECFKVVPK,inactive
2,PNDVRNAFFCPPPTKKPTVA,inactive
3,PNGSEIENLMYRGTLSC,inactive
4,PNNSIHQIICYIWNEYTWSC,2.55 ± 0.059
5,PNVMNNFVCITDPIPVGSMW,inactive
6,PPKGKSWMLIVVNRLGEDEQ,inactive
7,PPLYSRYLSFNGMTKVPWIC,inactive
8,PPTLQMVTVVGPKGWKVMFS,inactive
9,PQASVDQFLYFPIWTYLGIN,inactive
10,PQCESLMYCGD,inactive
11,PQHADVAFVT,inactive
12,PQPARLDQGGYISDMYCYVI,-0.362 ± 1.3
13,PREWLGVLLMTVLNFWMTVV,inactive
14,PRGLVALGFGAFSKGPHGRS,inactive
15,PRLNMGCMLFSEYTYCQMIL,1.1 ± 0.14
16,PRQRLMMWSRRG,inactive
17,PRWETSYLIL,inactive
18,PSKFVHKSDLCDNGYLPCTR,inactive
19,PSLCFSAVQLRLPRDVFLKY,inactive
20,PSLLQVHKCLRIRLIWRWLW,inactive
21,PSRIGSDFSRFLSEECGQLR,inactive
22,PSTDVILSANWDDRRSGLYG,inactive
23,PSVIRNAYYAY,inactive
24,PSYFEYFVRIGFFG,inactive

row,Substance,amyloid nucleation score
1,PSYNCFTKFVADQTVTLRFS,inactive
2,PTATRGPMTLRSHASHHRTL,inactive
3,PTELIACVAIYNVDYLYWIH,2 ± 0.082
4,PTITNS,inactive
5,PTQNKSDKVACGR,inactive
6,PTRFMTMKETKPVCWWLGNR,-0.114 ± 1.1
7,PVKGSFDT,inactive
8,PVLML,inactive
9,PVNGAVYTKGLTSWLRFIVV,-0.178 ± 0.82
10,PVSNRLSCDSAFTFPYNMIF,0.883 ± 0.16
11,PVTDLWLTFS,inactive
12,PVYGSLCRFYGVRYGR,inactive
13,PWDSLW,0.894 ± 0.12
14,PWHLIIDLQGWIFLVYEIGQ,inactive
15,PWRCKRWHFYMYVDCANLRQ,inactive
16,PYAGCIH,inactive
17,PYKEFPNNVRPTWNQRYNVK,inactive
18,PYLRT,inactive
19,PYSISMISTRYCLGRQHD,inactive
20,QARIWSSSVGAFSNCHSCRC,inactive
21,QARVRYDASTLLFGCTFC,2.65 ± 0.079
22,QCDVCVCCVARAEAVRRILG,2.33 ± 0.075
23,QCKGCFSPVFKSCFICR,inactive
